T1: N-cadherin (UniProt P19022 160-906, limits assumed)
T1 construct: whole, on cells
T1 sequence (looked up): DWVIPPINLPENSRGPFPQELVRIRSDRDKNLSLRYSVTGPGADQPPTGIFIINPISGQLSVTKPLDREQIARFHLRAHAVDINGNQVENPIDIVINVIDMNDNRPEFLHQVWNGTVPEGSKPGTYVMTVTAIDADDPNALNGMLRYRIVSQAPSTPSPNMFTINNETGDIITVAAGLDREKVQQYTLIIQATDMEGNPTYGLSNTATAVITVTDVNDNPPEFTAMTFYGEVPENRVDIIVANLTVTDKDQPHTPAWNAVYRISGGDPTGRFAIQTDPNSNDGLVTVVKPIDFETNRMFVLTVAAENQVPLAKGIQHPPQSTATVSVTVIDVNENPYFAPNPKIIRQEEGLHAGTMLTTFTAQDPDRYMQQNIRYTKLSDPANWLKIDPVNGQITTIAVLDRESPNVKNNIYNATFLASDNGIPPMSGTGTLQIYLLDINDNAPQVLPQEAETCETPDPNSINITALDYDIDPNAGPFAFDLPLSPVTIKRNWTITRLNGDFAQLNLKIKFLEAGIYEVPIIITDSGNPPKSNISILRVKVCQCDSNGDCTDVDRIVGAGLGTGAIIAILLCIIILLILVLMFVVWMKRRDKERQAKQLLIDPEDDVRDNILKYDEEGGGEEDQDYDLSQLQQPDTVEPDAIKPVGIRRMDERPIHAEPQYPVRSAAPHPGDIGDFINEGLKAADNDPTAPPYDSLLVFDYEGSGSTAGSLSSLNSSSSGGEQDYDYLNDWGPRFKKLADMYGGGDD

B1: recombinant immunoregulatory protein of Ganoderma lucidum (rLZ-8) (other)
chain: MSDTALIFRLAWDVKKLSFDYTPNWGRGNPNNFIDTVTFPKVLTDKAYTYRVAVSGRNLGVKPSYAVESDGSQKVNFLEYNSGYGIADTNTIQVFVVDPDTNNDFIIAQWN
notes: also called Lingzhi-8
B2: rLZ-8 (K16A/K41A) (other)
chain: MSDTALIFRLAWDVKALSFDYTPNWGRGNPNNFIDTVTFPAVLTDKAYTYRVAVSGRNLGVKPSYAVESDGSQKVNFLEYNSGYGIADTNTIQVFVVDPDTNNDFIIAQWN
notes: Alanine mutant of rLZ-8
B3: rLZ-8 (D20H) (other)
chain: MSDTALIFRLAWDVKKLSFHYTPNWGRGNPNNFIDTVTFPKVLTDKAYTYRVAVSGRNLGVKPSYAVESDGSQKVNFLEYNSGYGIADTNTIQVFVVDPDTNNDFIIAQWN
notes: Surface potential mutant of rLZ-8
B4: rLZ-8 (K41D/K46E/K74E) (other)
chain: MSDTALIFRLAWDVKKLSFDYTPNWGRGNPNNFIDTVTFPDVLTDEAYTYRVAVSGRNLGVKPSYAVESDGSQEVNFLEYNSGYGIADTNTIQVFVVDPDTNNDFIIAQWN
notes: Mutant of rLZ-8
B5: rLZ-8 (K16A/S18A/K41A/D45A) (other)
chain: MSDTALIFRLAWDVKALAFDYTPNWGRGNPNNFIDTVTFPAVLTAKAYTYRVAVSGRNLGVKPSYAVESDGSQKVNFLEYNSGYGIADTNTIQVFVVDPDTNNDFIIAQWN
notes: Alanine mutant of rLZ-8, made by the same fermentation and purification as rLZ-8
B6: rLZ-8 (K46E/K74E) (other)
chain: MSDTALIFRLAWDVKKLSFDYTPNWGRGNPNNFIDTVTFPKVLTDEAYTYRVAVSGRNLGVKPSYAVESDGSQEVNFLEYNSGYGIADTNTIQVFVVDPDTNNDFIIAQWN
notes: Mutant of rLZ-8
B7: rLZ-8 (L17K) (other)
chain: MSDTALIFRLAWDVKKKSFDYTPNWGRGNPNNFIDTVTFPKVLTDKAYTYRVAVSGRNLGVKPSYAVESDGSQKVNFLEYNSGYGIADTNTIQVFVVDPDTNNDFIIAQWN
notes: as for B3
B8: rLZ-8 (L17K/D70K) (other)
chain: MSDTALIFRLAWDVKKKSFDYTPNWGRGNPNNFIDTVTFPKVLTDKAYTYRVAVSGRNLGVKPSYAVESKGSQKVNFLEYNSGYGIADTNTIQVFVVDPDTNNDFIIAQWN
notes: as for B3
B9: rLZ-8 (D70K) (other)
chain: MSDTALIFRLAWDVKKLSFDYTPNWGRGNPNNFIDTVTFPKVLTDKAYTYRVAVSGRNLGVKPSYAVESKGSQKVNFLEYNSGYGIADTNTIQVFVVDPDTNNDFIIAQWN
notes: as for B3
B10: rLZ-8 (D45A) (other)
chain: MSDTALIFRLAWDVKKLSFDYTPNWGRGNPNNFIDTVTFPKVLTAKAYTYRVAVSGRNLGVKPSYAVESDGSQKVNFLEYNSGYGIADTNTIQVFVVDPDTNNDFIIAQWN
notes: Alanine mutant of rLZ-8
B11: rLZ-8 (R9A) (other)
chain: MSDTALIFALAWDVKKLSFDYTPNWGRGNPNNFIDTVTFPKVLTDKAYTYRVAVSGRNLGVKPSYAVESDGSQKVNFLEYNSGYGIADTNTIQVFVVDPDTNNDFIIAQWN
notes: Alanine mutant of rLZ-8
B12: rLZ-8 (S18A) (other)
chain: MSDTALIFRLAWDVKKLAFDYTPNWGRGNPNNFIDTVTFPKVLTDKAYTYRVAVSGRNLGVKPSYAVESDGSQKVNFLEYNSGYGIADTNTIQVFVVDPDTNNDFIIAQWN
notes: Alanine mutant of rLZ-8

Columns and labels:
[1] = molecular target: T1, N-cadherin; test: immunofluorescence co-localization on cells
[2] = molecular target: T2, LDLR (UniProt P01130 22-860, limits assumed); test: immunofluorescence co-localization on cells
T2 construct: whole, on cells

[3] = molecular target: T3, EGFR extracellular domain (with an amino acid sequence of 25-645) (human, UniProt P00533 25-645); test: SPR, Biacore T200; EGFR extracellular domain on CM5 chip, rLZ-8 protein as analyte
T3 construct: range 25-645; Coupled on a CM5 chip; also called epidermal growth factor receptor extracellular domain; ligand (on the chip)

[4] = molecular target: T3, EGFR extracellular domain (with an …); test: SPR, Biacore T200; EGFR extracellular domain on CM5 chip
[5] = molecular target: T3, EGFR extracellular domain (with an …); test: EGFR affinity test (SPR)

T2 sequence (P01130 22-860 limits assumed): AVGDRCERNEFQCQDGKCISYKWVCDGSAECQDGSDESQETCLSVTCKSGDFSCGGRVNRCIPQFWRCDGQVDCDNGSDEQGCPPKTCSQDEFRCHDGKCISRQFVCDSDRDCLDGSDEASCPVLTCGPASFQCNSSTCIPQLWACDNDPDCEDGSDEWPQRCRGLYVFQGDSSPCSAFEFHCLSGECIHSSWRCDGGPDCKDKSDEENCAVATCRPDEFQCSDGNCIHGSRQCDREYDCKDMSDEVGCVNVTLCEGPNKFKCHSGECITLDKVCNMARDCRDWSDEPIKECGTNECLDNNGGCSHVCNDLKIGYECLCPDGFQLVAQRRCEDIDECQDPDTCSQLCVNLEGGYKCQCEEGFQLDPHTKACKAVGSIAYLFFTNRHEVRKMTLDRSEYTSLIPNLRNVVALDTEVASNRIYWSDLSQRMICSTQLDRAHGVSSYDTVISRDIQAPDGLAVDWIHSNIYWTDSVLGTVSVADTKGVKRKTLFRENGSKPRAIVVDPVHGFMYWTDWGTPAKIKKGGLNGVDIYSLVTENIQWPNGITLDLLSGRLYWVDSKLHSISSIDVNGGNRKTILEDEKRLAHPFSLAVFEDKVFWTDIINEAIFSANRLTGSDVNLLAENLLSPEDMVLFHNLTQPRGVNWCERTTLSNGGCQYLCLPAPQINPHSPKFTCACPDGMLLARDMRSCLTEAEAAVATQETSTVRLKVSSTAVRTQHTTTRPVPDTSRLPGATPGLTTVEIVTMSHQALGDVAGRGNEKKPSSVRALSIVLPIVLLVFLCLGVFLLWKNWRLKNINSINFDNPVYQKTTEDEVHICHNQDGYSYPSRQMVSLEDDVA

Binder	binding result [1]	binding result [2]	Kd [3] [nM]	koff [3] [s⁻¹]	kon [3] [M⁻¹ s⁻¹]	fold increase of affinity against rLZ-8 [4] [times]	fold increase of affinity equilibrium constant against rLZ-8 [5] [times]
B1	no binding	no binding	–	–	–	–	–
B2	–	–	1240	0.000273	220	–	–
B3	–	–	7.36	0.000432	58700	–	–
B4	–	–	12.2	0.000431	35300	–	–
B5	–	–	30600	0.00423	139	–	–
B6	–	–	9.35	0.000614	65700	–	–
B7	–	–	7.49	7.56e-05	10100	–	–
B8	–	–	1.53	0.000329	215000	6	–
B9	–	–	2.25	0.000457	203000	2.3	4
B10	–	–	620	0.000743	1200	–	–
B11	–	–	8.63	0.000528	61200	–	–
B12	–	–	489	0.00182	3720	–	–

Source: patent US12077566 (dated 2024)
